Where a chain is given by its changes, count along the chain named.
Columns and labels:
Test in all cases: cell_activity; CHO extrachromosomal SSA assay
[1] = biological target: T1, I-CreI heterodimer Mt 3A + Mt 4A (Chlamydomonas reinhardtii (engineered), UniProt P05725;P05725 SEQ:1-167,SEQ:1-167)
T1 chain 1: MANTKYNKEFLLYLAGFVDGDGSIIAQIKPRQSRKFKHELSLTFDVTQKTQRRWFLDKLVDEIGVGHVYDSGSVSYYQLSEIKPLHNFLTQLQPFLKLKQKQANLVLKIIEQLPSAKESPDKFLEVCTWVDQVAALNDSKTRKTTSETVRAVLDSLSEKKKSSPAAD
T1 chain 2: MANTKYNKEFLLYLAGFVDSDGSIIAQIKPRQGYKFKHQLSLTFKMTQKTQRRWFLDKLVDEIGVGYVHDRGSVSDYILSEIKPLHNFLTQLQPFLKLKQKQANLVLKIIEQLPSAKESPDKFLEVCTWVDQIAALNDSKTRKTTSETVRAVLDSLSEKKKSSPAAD
Method: (§1) CHO cells were transfected with Polyfect® transfection reagent according to the supplier's protocol (QIAGEN). 72 hours after transfection, the level of Beta galactosidase expression for each transfection was quantified using the Beta-Glo® Assay System (Promega). The Beta-Glo Assay contains a luciferin-galactoside substrate (6-O-β-galactopyranosylluciferin) that can be cleaved by β-galactosidase to form luciferin that is then utilized in a firefly luciferase reaction to generate light. For each transfection, approximately 100,000 cells in 100 μl of medium were combined with an equal volume of Beta-Glo lysis/revelation buffer as described by the manufacturer (Promega). After 30 minutes of incubation at room temperature, signal was measured with a luminometer (Perkin Elmer Victor multilabel plate reader).
(§2) Several variants described in examples 3, 5, 6, 7 and 8 were first recloned in pCLS1768 (FIG. 16). Then, in order to identify the heterodimer displaying the maximal cleavage activity with the GSCHO1 target in CHO cells, I-CreI variants cleaving the GSCHO1.3 or GSCHO1.4 targets (described in examples 3, 5, 6, 7 and 8) were tested together as heterodimers against the GSCHO1 target in the CHO extrachromosomal assay.

[2] = biological target: T2, I-CreI heterodimer Mt 3B + Mt 4D (Chlamydomonas reinhardtii (engineered), UniProt P05725;P05725 SEQ:1-167,SEQ:1-167)
T2 chain 1: T1 chain 1 with G20A, H67Y, D121A, V133I
T2 chain 2: T1 chain 2 with S20G, K45R, M46V
Method: as §1, §2

[3] = biological target: T3, I-CreI heterodimer Mt 3B + Mt 4A (Chlamydomonas reinhardtii (engineered), UniProt P05725;P05725 SEQ:1-167,SEQ:1-167)
T3 chain 1: T1 chain 1 with G20A, H67Y, D121A, V133I
T3 chain 2: T1 chain 2
Method: as §1, §2

[4] = biological target: T4, I-CreI heterodimer Mt 3A + Mt 4B (Chlamydomonas reinhardtii (engineered), UniProt P05725;P05725 SEQ:1-167,SEQ:1-167)
T4 chain 1: T1 chain 1
T4 chain 2: T1 chain 2 with S20G, K45Q, M46V, H69A, I78R, P120L
Method: as §1, §2

[5] = biological target: T5, I-CreI heterodimer Mt 3C + Mt 4C (Chlamydomonas reinhardtii (engineered), UniProt P05725;P05725 SEQ:1-167,SEQ:1-167)
T5 chain 1: T1 chain 1 with G20S, K58E, H67Y, S119T
T5 chain 2: T1 chain 2 with S20G, G33S, Y34R, K45Q, M46V, H69A, I78R
Method: as §1, §2

[6] = biological target: T6, I-CreI heterodimer Mt 3B + Mt 4B (Chlamydomonas reinhardtii (engineered), UniProt P05725;P05725 SEQ:1-167,SEQ:1-167)
T6 chain 1: T1 chain 1 with G20A, H67Y, D121A, V133I
T6 chain 2: T1 chain 2 with S20G, K45Q, M46V, H69A, I78R, P120L
Method: as §1, §2

[7] = biological target: T7, I-CreI heterodimer Mt 3C + Mt 4B (Chlamydomonas reinhardtii (engineered), UniProt P05725;P05725 SEQ:1-167,SEQ:1-167)
T7 chain 1: T1 chain 1 with G20S, K58E, H67Y, S119T
T7 chain 2: T1 chain 2 with S20G, K45Q, M46V, H69A, I78R, P120L
Method: as §1, §2

[8] = biological target: T8, I-CreI heterodimer Mt 3A + Mt 4D (Chlamydomonas reinhardtii (engineered), UniProt P05725;P05725 SEQ:1-167,SEQ:1-167)
T8 chain 1: T1 chain 1
T8 chain 2: T1 chain 2 with S20G, K45R, M46V
Method: as §1, §2

[9] = biological target: T9, I-CreI heterodimer Mt 3A + Mt 4C (Chlamydomonas reinhardtii (engineered), UniProt P05725;P05725 SEQ:1-167,SEQ:1-167)
T9 chain 1: T1 chain 1
T9 chain 2: T1 chain 2 with S20G, G33S, Y34R, K45Q, M46V, H69A, I78R
Method: as §1, §2

[10] = biological target: T10, I-CreI heterodimer Mt 3B + Mt 4C (Chlamydomonas reinhardtii (engineered), UniProt P05725;P05725 SEQ:1-167,SEQ:1-167)
T10 chain 1: T1 chain 1 with G20A, H67Y, D121A, V133I
T10 chain 2: T1 chain 2 with S20G, G33S, Y34R, K45Q, M46V, H69A, I78R
Method: as §1, §2

[11] = biological target: T11, I-CreI heterodimer Mt 3C + Mt 4D (Chlamydomonas reinhardtii (engineered), UniProt P05725;P05725 SEQ:1-167,SEQ:1-167)
T11 chain 1: T1 chain 1 with G20S, K58E, H67Y, S119T
T11 chain 2: T1 chain 2 with S20G, K45R, M46V
Method: as §1, §2

B1: GSCHO1 (dsDNA)
DNA 1: TGGCATACAAGTTTCTGCCCCAGGGTGAGAAAGTCCAACAATCGTCTGTCA
DNA 2: TGACAGACGATTGTTGGACTTTCTCACCCTGGGGCAGAAACTTGTATGCCA
Binder B1 has an activity [1] of 2.8e+06 luminescence units, an activity [2] of 3.1e+06 luminescence units and an activity [3] of 500000 luminescence units. For the same binder, the activity [4] was 2.3e+06 luminescence units, the activity [5] was 2.9e+06 luminescence units and the activity [6] was 3.1e+06 luminescence units. For the same binder, the activity [7] was 2.8e+06 luminescence units, the activity [8] was 2.5e+06 luminescence units and the activity [9] was 2e+06 luminescence units. The activity [10] was 3.1e+06 luminescence units and the activity [11] was 2.4e+06 luminescence units.
